We go through 25 molecules from patent publication US20190092871A1 (VIB VZW, published 2019).

For one experiment, the target named is T1, human CD20 (human, UniProt P11836 1-297).
T1 construct: The forward primer starts at codon 2; also called hCD20; CHO-K1-hCD20
T1 sequence: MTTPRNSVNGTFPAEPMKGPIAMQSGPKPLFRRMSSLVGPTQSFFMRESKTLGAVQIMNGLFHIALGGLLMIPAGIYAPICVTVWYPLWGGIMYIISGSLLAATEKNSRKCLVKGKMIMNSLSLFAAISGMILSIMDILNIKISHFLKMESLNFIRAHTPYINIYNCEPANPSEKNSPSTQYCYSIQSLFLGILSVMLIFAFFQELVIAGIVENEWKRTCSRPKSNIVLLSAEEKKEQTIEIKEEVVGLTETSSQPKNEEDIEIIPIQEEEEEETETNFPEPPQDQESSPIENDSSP
In words: cell ELISA, crude periplasmic extract, CHO-K1 expressing human CD20 against parental CHO-K1.

The target in the next experiment is T2, mouse CD20 (mouse, UniProt P19437 1-291).
T2 construct: whole, on cells; also called mCD20; CHO-K1-mCD20
T2 sequence (looked up): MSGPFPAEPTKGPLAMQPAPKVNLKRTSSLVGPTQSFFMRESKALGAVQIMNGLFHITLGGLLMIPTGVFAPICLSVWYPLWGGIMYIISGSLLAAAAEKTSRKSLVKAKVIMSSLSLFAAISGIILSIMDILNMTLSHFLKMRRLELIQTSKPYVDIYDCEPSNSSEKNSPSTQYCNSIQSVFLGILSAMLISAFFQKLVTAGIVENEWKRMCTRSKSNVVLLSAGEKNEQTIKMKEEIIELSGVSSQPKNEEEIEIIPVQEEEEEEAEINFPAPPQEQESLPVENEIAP
In words: cell ELISA, crude periplasmic extract, CHO-K1 expressing mouse CD20 against parental CHO-K1. Here is the method:
The library was subjected to 3 consecutive rounds of panning (in solution), performed on stably transfected CHO-K1 cells expressing mouse CD20. A parallel panning was performed on parental (non-transfected CHO-K1) cells to serve as negative control for the calculation of CD20-specific phage enrichment. The enrichment for antigen-specific phages was assessed after each round of panning by comparing the number of phagemid particles eluted from transfected cells with the number of phagemid particles eluted from parental cells. […] In total, 285 colonies (95 from each round of panning) were randomly selected and their crude periplasmic extracts (including soluble VHHs) were analyzed by cell ELISA for specific binding to transfected CHO-K1, as compared to parental cells. […] The 11 different VHHs belong to 2 different groups.
The library was subjected to 2 consecutive rounds of panning (in solution), performed on stably transfected CHO-K1 cells expressing mouse CD20 as described above. Here, the phage population was enriched (for antigen-specific phages) about 2- and 45-fold after 1st and 2nd rounds of panning, respectively. Here, 190 colonies, randomly picked from 2nd round, were tested by cell ELISA as above and 10 colonies scored positive. Based on sequence data, the 10 positive colonies represented 8 different VHHs (FIG. 4, bottom panel). The 8 different VHHs belong to 2 different groups. One of the groups identified here is the same group as one of those identified above.

B1: 2HCD16 (VHH)
VHH: QVQLQESGGGLVQAGGSLRLSCAASGRTFSRQSMGWFRQAPGKEREFVAVITWSGGSPYYADSVRGRFTISRDNAKNTVYLQMNSLKPEDTAVYYCAAPVSYGSQWLADYWGQGTQVTVSS
notes: Whole entry = VHH-AAA-HA-His6 (pMECS construct)
Regarding B1, in the experiment with human CD20, the binding result is “binds”.

B2: R3CD7 (VHH)
VHH: QVQLQESGGGLVQAGGSLRLSCAASGRSFSSVNMGWFRQAPGKEREFVAVIDWSGGSPYYTDSVRGRFTISRDNSKNTVYLQMNSLKPEDTAVYYCAAGVSYGSRWLGDYWGQGTQVTVSS
notes: as for B1
For the molecule B2, the binding result in the experiment with human CD20 is listed as “binds”.

B3: 2HCD42 (VHH)
VHH: QVQLQESGGGLVQAGGSLRLSCAASGRTFSSYAMGWFRQAPGKEREFVAVITWSGGSPYYADSVRGRFTISRDNAKNTVYLQMNSLKPEDTAVYYCAAPVSYGSQWLADYWGQGTQVTVSS
notes: as for B1
In the case of B3, the binding result with human CD20 was “binds”.

B4: 2HCD35 (VHH)
VHH: QVQLQESGGGLVQAGGSLRLSCAASGRTFSGQSMGWFRQAPGKEREFVAVITWSGGSPYYADSVRGRFTISRDNAKNTVHLQMNSLKPEDTAVYYCAAPVSYGSQWLADYWGQGTQVTVSS
notes: as for B1
As to B4, the binding result in the experiment with human CD20 was “binds”.

B5: R3CD18 (VHH)
VHH: QVQLQESGGGLVQAGGSLRLSCAASGRTFSNSNMGWFRQAPGKEREFVAVIDWSGGSPYYTDSVRGRFTISRDNAKNTVYLQMNRLKPEDTAVYYCAGGVSFGSRWLSDYWGQGTQVTVSS
notes: as for B1
On to B5, for which, in the experiment with human CD20, the binding result is reported as “binds”.

B6: 2HCD22 (VHH)
VHH: QVQLQESGGGLVQAGDSLRLSCAASGRTFSRQSMGWFRQAPGKEREFVAVITWSGGSPYYADSVKGRFTISRDNAKNTVYLQMNSLKPEDTAVYYCAAPVSYGSQWLADYWGQGTQVTVSS
notes: as for B1
On to B6, for which the binding result with human CD20 was “binds”.

B7: R2MUC70 (VHH)
VHH: QVQLQESGGGLVQAGGSLRLSCAASGRDFATYSMAWFRQAPGKERESVATISWSGQRTRYADSVKGRFTISRDNAKNTVYLQMNSLKPEDTAVYYCAAPRTWGEFPPTQYDSWGQGTQVTVSS
notes: as for B1
On to B7, for which the binding result with mouse CD20 is “binds”.

B8: R3MUC75 (VHH)
VHH: QVQLQESGGGSVQTGGSLRLSCAASGRDFSTYSMGWFRQAPGKERESVATISWSGQRTRYADSVKGRFTISRDNAKNTVYLQMNSLKPEDTAVYYCAAPRTWGEFPPTQYDSWGQGTQVTVSS
notes: as for B1
As for B8, in the experiment with mouse CD20, the binding result was “binds”.

B9: R3MUC17 (VHH)
VHH: QVQLQESGGGLVPAGGSLRLSCAASGRDFATYSMAWFRQAPGKERESVATISWSGQRTRYADSVKGRFTISRDNAKNTVYLQMNSLKPEDTAVYYCAAPRTWGEFPPTQYDSWGQGTQVTVSS
notes: as for B1
As for B9, in the experiment with mouse CD20, the binding result is “binds”.

B10: R3MUC57 (VHH)
VHH: QVQLQESGGGLVQAGGSLRLSCAASGRDFATYSMAWFRQAPGEERESVATISWSGQRTRYADSVKGRFTISRDNAKNTVYLQMNSLKPEDTAVYYCAAPRTWGEFPPTQYDSWGQGTQVTVSS
notes: as for B1
With B10, the binding result in the experiment with mouse CD20 is “binds”.

B11: 2MC57 (VHH)
VHH: QVQLQESGGGLVQAGGSLRLSCAASGRDFATYSMAWFRQAPGKERESVATISWSGQRTRYADSVKGRFTISRDNAKNTVYLQMNSLKPEDTAVYYCAMPRTWGEFPPTQYDSWGQGTQVTVSS
notes: Whole entry = VHH-AAA-HA-His6 (pMECS construct); also called mCD20 Nb
As for B11, the binding result with mouse CD20 is “binds”.

B12: R3MUC66 (VHH)
VHH: QVQLQESGGGLVQAGGSLRLSCAASGRDFATYSMTWFRQAPGKERESVATISWSGQRTRYADSVKGRFTISRDNAKNTVYLQMNSLRPEDTAVYYCAAPRTWGEFPPTQYDSWGQGTQVTVSS
notes: as for B1
For the molecule B12, the binding result in the experiment with mouse CD20 is listed as “binds”.

B13: R2MUC85 (VHH)
VHH: QVQLQESGGGLVQPGGSLRLSCATSGRDFATYSMAWFRQAPGKERESVATISWSGQRTRYADSVKGRFTISRDNAKNTVYLQMNSLKPEDTAVYYCAAPRTWGEFPPTQYDSWGQGTQVTVSS
notes: as for B1
In the case of B13, the binding result in the experiment with mouse CD20 is given as “binds”.

B14: R3MUC56 (VHH)
VHH: QVQLQESGGGLVQAGDSLRLSCAASGRDFATYSMAWFRQAPGKERESVATISWSGQRTRYADSVKGRFTISRDNAKNTVYLQMNSLKPEDTAVYYCAAPRTWGEFPPTQYDSWGQGTQVTVSS
notes: as for B1
As for B14, the binding result in the experiment with mouse CD20 is on record as “binds”.

B15: R3MUC22 (VHH)
VHH: QVQLQESGGGLVQAGGSLRLSCAASGRTFSTYSMGWFRQAPGKEREFVAIISWSGQRTRYADSVKGRFTISRDNAKNTVYLQMNSLKPEDTAVYYCAAPRTWGEFPPTQYDSWGQGTQVTVSS
notes: as for B1
Turning to B15, the binding result with mouse CD20 was “binds”.

B16: 2MC52 (VHH)
VHH: QVQLQESGGGLVQAGGSLRLSCVASGRTFNTYSMGWFRQAPGKEREFVASISWSGQRSRYADSVKGRFTISRDNAKNTVYLQMNSLKPEDTAVYYCASPRTWGEFPPTQYDSWGQGTQVTVSS
notes: as for B1
B16: the binding result with mouse CD20 was “binds”.

B17: R3MUC58 (VHH)
VHH: QVQLQESGGGLVQPGGSLRLSCAASGRDFATYSMAWFRQAPGKERESVATISWSGQRTRYADSVKGRFTISRDNAKNTVYLQMNSLKPEDTAVYYCAAPRTWGEFPPTQYDSWGQGTQVTVSS
notes: as for B1
For the molecule B17, in the experiment with mouse CD20, the binding result was “binds”.

B18: R2MUC21 (VHH)
VHH: QVQLQESGGGLVQAGDSLRLSCAASGRDFSTYSMGWFRQAPGKERESVATISWSGQRTRYADSVKGRFTISRDNAKNTVYLQMNSLKPEDTAVYYCAAPRTWGEFPPTQYDSWGQGTQVTVSS
notes: as for B1
In the case of B18, the binding result in the experiment with mouse CD20 is listed as “binds”.

B19: 2MC39 (VHH)
VHH: QVQLQESGGGLAQAGNSLRISCVASGNTFDTRAMGWFRQAPGKEREFVAAISRSSFNTYYSDSVTGRFTISRDNAKNTVYLQMNSLKPEDTAVYYCAAGKYGMKWRDGADYWGQGTQVTVSS
notes: as for B1
B19: in the experiment with mouse CD20, the binding result is “binds”.

B20: 2MC42 (VHH)
VHH: QVQLQESGGGSVQTGGTLTLSCVASGNTFDTRAMGWFRQAPGEEREFVAAISRSSFNTYYSDSVTGRFTISRDNAKNTVYLQMNSLKPEDTAVYYCAAGKYGMKWRDGADYWGQGTQVTVSS
notes: as for B1
For B20, the binding result in the experiment with mouse CD20 is given as “binds”.

B21: 2MC82 (VHH)
VHH: QVQLQESGGGLAQEGGSLRLSCVASGNTFDTRAMGWFRQAPGKEREFVAAISRSSFNTYYSDSVTGRFTISRDNAKNMVYLQMNSLKPEDTAVYYCAAGKYGMKWRDGADYWGQGTQVTVSS
notes: as for B1
Turning to B21, the binding result with mouse CD20 is listed as “binds”.

B22: 2MC20 (VHH)
VHH: QVQLQESGGGLVQTGGSLRLSCAASGNTFDTRAMGWFRQAPGKEREFVAAISRSSFNTYYSDSVTGRFTISRDNAKNTVYLQMNSLKPEDTAVYYCAAGKYGMKWRDGADYWGQGTQVTVSS
notes: as for B1
Regarding B22, the binding result with mouse CD20 is listed as “binds”.

B23: 2MC51 (VHH)
VHH: QVQLQESGGGLAQAGNSLRISCVASGNTFDTRAMGWFRQAPGKEREFVAAISRSSFNTYYSDSVTGRFTISRDNAKNTVYLQMNSLKPEDTAVYYCVAGKYGMKWRDGADYWGQGTQVTVSS
notes: as for B1
For B23, the binding result in the experiment with mouse CD20 is reported as “binds”.

B24: 2MC38 (VHH)
VHH: QVQLQESGGGLVQAGESLRISCVASGNTFDTRAMGWFRQAPGKEREFVAAISRSSFNTYYSDSVTGRFTISRDNAKNTVYLQMNSLKPEDTAVYYCVAGKYGMKWRDGADYWGQGTQVTVSS
notes: as for B1
With B24, in the experiment with mouse CD20, the binding result is “binds”.

B25: R2MUC36 (VHH)
VHH: QVQLQESGGGLVQAEGSLRLSCAASGRTRDANAMGWFRQAPGKERELVAAISWSGSRTYYADSVKGRFTISRDNVMHTVYLSMNSLKPEDTAVYYCAADRSIEVQIADYDYWGRGTQVTVSS
notes: as for B1
For the molecule B25, the binding result with mouse CD20 is on record as “binds”.
